Measurements published in US20170226203A1 (Daiichi Sankyo, published 2017).

B1: human anti-human Orai1 antibody 2C1.1 (antibody, human IgG2, lambda, V domains shown)
VH: QVQLQQWGAGLLKPSETLSLTCAVYGGSFSGYYWSWIRQPPGKGLEWIGEIDHSGSTNYNPALKSRLTISVDTSKNQFSLKLSSVTAADTAVYYCARAGSGGYEDWFDPWGQGTLVTVSS
VL: QSVLTQPPSVSGAPGQRVTISCTGSSSNIGAGYNVHWYQQFPRTDPKLLIYVYNIRPSGVPDRFSGSRSGTSASLAITGLQTEDEADYYCQSYDSSLSGVVFGGGTKLTVLG
B2: mouse anti-human Orai1 antibody 14F74 (antibody, mouse IgG1, kappa, V domains shown)
VH: QVQLQQSGAELVRPGSSVKISCKASGYAFSSYWMNWVKQRPGQGLEWIGHIYPGDGDTNYNGKFKGKATLTADKSSSTAYMQLSGLTSEDSAVYFCARSGRLRFAMDYWGQGTSVTVSS
VL: DIVMSQSPSSLAVSAGEKVTMSCKSSQSLLNSRTRKNYLAWYQQKPGQSPKLLIYWASTRESGVPDRFTGSGSGTDFTLTISSVQAEDLAVYYCKQSYNLRTFGGGTKLEIQR
B3: mouse anti-human Orai1 antibody 17F6 (antibody, mouse IgG1, kappa, V domains shown)
VH: QVQLQQSGAELVRPGSSVKISCKASGYAFSSYWMNWVKQRPGQGLEWIGHIYPGDADTNYNGKFKGKATLTADKSSSTAYMHLSSLTSEDSAVYFCSRQLGFRYAMDYWGQGTSVTVSS
VL: DIVMSQSPSSLAVSAGEKVTMSCKSSQSLLNSRTRKNYLAWYQQKPGQSPKLLIYWASTRESGVPDRFTGSGSGTDFTLTISSVQAEDLAVYYCKQSYNLRTFGGGTKLEIKR
B4: human anti-human Orai1 antibody 5H3.1 (antibody, human IgG2, lambda, V domains shown)
VH: QVQLVQSGAEVKKPGASVKVSCKASGYTFTDYYMNWVRQAPGQGLEWMGWINPNSGGTKYAQKFQGRVTMTRDTSIRTAYMELSRLRSDDTAVYYCAREYGGNSDWFDPWGQGTLVTVSS
VL: QSVLTQPPSVSGAPGQRVTISCTGSSSNIGAGYDVHWYQQLPGTAPKLLIYGNSNRPSGVPDRFSGSKSGTSASLAITGLQAEDEADYYCQSYDNRLSDSVVIGGGTKLAVQG
B5: parent antibody Fab hR198_H4/L4-Fab (Fab, V domains shown)
VH: QVQLVQSGAEVKKPGASVKVSCKASGYPVTAYYISWIRQAPGQGLEYVGYIDMGNGRTNYNARFKGRATLTVDKSTSTAYMELSSLRSEDTAVYYCARDSNWGVDYWGQGTLVTVSS
VL: DIQLTQSPSSLSASVGDRVTITCRASQSIGNSLSWFQQKPGKAVKRLIYSTSTLESGVPSRFSGSGSGTDYTLTISSLQPEDFAMYYCLQFATFPDTFGQGTKVEI
notes: Fab of hR198_H4/L4
B6: affinity maturation antibody hR198_HG1/LG1 (antibody, human IgG1, kappa)
heavy: not shown
light: DIQLTQSPSSLSASVGDRVTITCRASQSIGGSLSWFQQKPGKAPKRLIYSTSTLESGVPSRFSGSGSGTDYTLTISSLQPEDFAMYYCLQFAIFPDSFGQGTKVEIKRTVAAPSVFIFPPSDEQLKSGTASVVCLLNNFYPREAKVQWKVDNALQSGNSQESVTEQDSKDSTYSLSSTLTLSKADYEKHKVYACEVTHQGLSSPVTKSFNRGEC
B7: hR198_HG1-LALA/LG1 (antibody, human IgG1, kappa, L234A L235A)
heavy: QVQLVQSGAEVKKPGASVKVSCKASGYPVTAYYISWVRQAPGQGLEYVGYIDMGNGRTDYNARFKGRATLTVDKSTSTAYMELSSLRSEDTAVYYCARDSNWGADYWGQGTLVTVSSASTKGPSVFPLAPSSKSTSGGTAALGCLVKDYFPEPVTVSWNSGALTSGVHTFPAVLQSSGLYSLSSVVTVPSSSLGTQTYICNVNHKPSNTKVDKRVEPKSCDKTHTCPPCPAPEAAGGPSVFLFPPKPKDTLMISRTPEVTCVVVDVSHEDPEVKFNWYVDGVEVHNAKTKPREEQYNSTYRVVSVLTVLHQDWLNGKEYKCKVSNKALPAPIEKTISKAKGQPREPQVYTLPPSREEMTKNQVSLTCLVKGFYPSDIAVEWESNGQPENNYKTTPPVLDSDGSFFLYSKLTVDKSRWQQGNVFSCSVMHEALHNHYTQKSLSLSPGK
light: DIQLTQSPSSLSASVGDRVTITCRASQSIGGSLSWFQQKPGKAPKRLIYSTSTLESGVPSRFSGSGSGTDYTLTISSLQPEDFAMYYCLQFAIFPDSFGQGTKVEIKRTVAAPSVFIFPPSDEQLKSGTASVVCLLNNFYPREAKVQWKVDNALQSGNSQESVTEQDSKDSTYSLSSTLTLSKADYEKHKVYACEVTHQGLSSPVTKSFNRGEC
B8: humanized anti-human Orai1 antibody hR198_H4/L4 (antibody, human IgG1, kappa, V domains shown)
VH: QVQLVQSGAEVKKPGASVKVSCKASGYPVTAYYISWIRQAPGQGLEYVGYIDMGNGRTNYNARFKGRATLTVDKSTSTAYMELSSLRSEDTAVYYCARDSNWGVDYWGQGTLVTVSS
VL: DIQLTQSPSSLSASVGDRVTITCRASQSIGNSLSWFQQKPGKAVKRLIYSTSTLESGVPSRFSGSGSGTDYTLTISSLQPEDFAMYYCLQFATFPDTFGQGTKVEIKR
notes: Human IgG1 / kappa; also called hH4/L4
B9: mouse anti-human Orai1 antibody 10F8 (antibody, mouse IgG1, kappa, V domains shown)
VH: QVQLQQSGAELVRPGSSVKISCKASGYAFRSYWMNWVKQRPGQGLEWIGHIYPGDGDTNYNGKFKGKATLTADKSSSTAYMQLSSLTSEDSAVYLCGRGGTTVVVDYWGQGTTLTVSS
VL: DIVMSQSPSSLAVSAGEKVTMSCKSSQSLLNSRTRKNYLAWYQQKPGQSPKLLIYWASTRESGVPDRFTGSGSGTDFTLTISSVQAEDLAVYYCKQSYNLPWTFGGGTKLEIKR

Experiments:
human Orai1 [1] = target: T1, human Orai1 (human, UniProt Q96D31 1-301); test: cell-based or functional assay
T1 sequence (Q96D31 whole entry): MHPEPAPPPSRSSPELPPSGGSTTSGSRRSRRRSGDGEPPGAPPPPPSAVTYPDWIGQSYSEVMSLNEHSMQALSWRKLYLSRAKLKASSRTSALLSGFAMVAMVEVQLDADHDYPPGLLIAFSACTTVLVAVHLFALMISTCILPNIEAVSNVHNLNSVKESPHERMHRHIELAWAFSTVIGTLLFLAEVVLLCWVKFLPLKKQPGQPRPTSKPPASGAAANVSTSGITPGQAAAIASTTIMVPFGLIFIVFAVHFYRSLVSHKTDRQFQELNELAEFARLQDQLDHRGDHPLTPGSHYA

human Orai1 [2] = target: T1, human Orai1; test: flow cytometry, pcDNA3.1-hOrai1 transfected HEK293T cells

Binder | IC50, IFN-γ release from human PBMC treated with PMA and A23187 (human Orai1 [1]) [µg/mL] | IC50, IL-2 release from Jurkat cells treated with PMA and A23187 (human Orai1 [1]) [µg/mL] | IC50, IL-2 release from human PBMC treated with PMA and A23187 (human Orai1 [1]) [µg/mL] | IC80, IFN-γ release from human PBMC treated with PMA and A23187 (human Orai1 [1]) [µg/mL] | IC80, IL-2 release from Jurkat cells treated with PMA and A23187 (human Orai1 [1]) [µg/mL] | IC80, IL-2 release from human PBMC treated with PMA and A23187 (human Orai1 [1]) [µg/mL] | binding result (human Orai1 [2])
B1 | ≥ 0.8 | ≥ 0.08 | ≥ 0.1 | ≥ 300 | ≥ 60 | ≥ 17 | –
B2 | ≥ 0.8 | ≥ 0.08 | ≥ 0.1 | ≥ 300 | ≥ 60 | ≥ 17 | –
B3 | ≥ 0.8 | ≥ 0.08 | ≥ 0.1 | ≥ 300 | ≥ 60 | ≥ 17 | –
B4 | ≥ 0.8 | ≥ 0.08 | ≥ 0.1 | ≥ 300 | ≥ 60 | ≥ 17 | –
B5 | – | – | – | – | – | – | binds
B6 | ≤ 0.04 | ≤ 0.01 | ≤ 0.02 | ≤ 2 | ≤ 0.2 | ≤ 0.4 | –
B7 | ≤ 0.04 | ≤ 0.01 | ≤ 0.02 | ≤ 2 | ≤ 0.2 | ≤ 0.4 | –
B8 | – | – | – | – | – | – | binds
B9 | ≥ 0.8 | ≥ 0.08 | ≥ 0.1 | ≥ 300 | ≥ 60 | ≥ 17 | –
